{"source": "paper PMC12552534", "key": {"[1]": {"target": "N terminally histidine-tagged Y3 (C-terminal region of Sendai virus C protein) (Sendai virus)", "assay": "native MS; Y3 (50 μM) complexed with STAT3ND (50 μM), buffer-exchanged to 450 mM ammonium acetate pH 8.0, nano-ESI, native condition"}, "[2]": {"target": "N terminally histidine-tagged N-terminal domain of STAT3 (STAT3ND) (human) (UniProt P40763)", "assay": "native MS; Y3 (50 μM) complexed with STAT3ND (50 μM), buffer-exchanged to 450 mM ammonium acetate pH 8.0, nano-ESI, native condition"}, "[3]": {"target": "C terminally LgBiT-fused C protein (Sendai virus)", "sequence (P04862 1-204)": "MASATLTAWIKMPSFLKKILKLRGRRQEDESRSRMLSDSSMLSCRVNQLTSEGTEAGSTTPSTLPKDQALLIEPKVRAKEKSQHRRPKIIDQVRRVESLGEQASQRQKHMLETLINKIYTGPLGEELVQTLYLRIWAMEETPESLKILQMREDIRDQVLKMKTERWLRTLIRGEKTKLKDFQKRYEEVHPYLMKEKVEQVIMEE", "assay": "split reporter (BiFC, NanoBiT); NanoBiT; 293T cells co-transfected with LgBiT-fused C and SmBiT-fused STAT1, STAT3 or SV40 large T antigen (negative control), 24 h; luciferase activity measured in NP-40 lysates, normalised to GAPDH; control set to 1"}, "[4]": {"target": "N terminally histidine-tagged N-terminal domain of STAT3 (STAT3ND) (human) (UniProt P40763)", "assay": "SEC; Y3 and STAT3ND alone or mixed equimolar (100 μM in text and methods, 50 μM in the legend), preincubated 10 min on ice; Superdex 75 Increase 10/300 GL, 20 mM Tris-HCl pH 8.0, 100 mM NaCl, 4 °C, 0.5 ml/min; fractions on SDS-PAGE"}}}
{"substance": "N terminally histidine-tagged Y3 (C-terminal region of Sendai virus C protein) (domain or fragment)", "values": [{"measurement": "stoichiometry N", "setting": "[1]", "result": 2}, {"measurement": "stoichiometry N (Y3 per STAT3ND (1:2))", "setting": "[2]", "result": 0.5}]}
{"substance": "N terminally SmBiT-fused STAT3 (from UniProt P40763 1-770) (natural protein)", "values": [{"measurement": "luciferase activity, fold lower than with SmBiT-fused STAT1", "setting": "[3]", "result": 4.8, "unit": "fold"}, {"measurement": "luciferase activity, fold over the SmBiT-fused SV40 large T antigen negative control", "setting": "[3]", "result": 1.3, "unit": "fold"}]}
{"substance": "N terminally histidine-tagged N-terminal domain of STAT3 (STAT3ND) (from UniProt P40763 3-138) (domain or fragment)", "values": [{"measurement": "stoichiometry N", "setting": "[4]", "result": 2}]}
